Target: rabbit muscle actin (rabbit) (UniProt P68135)
Test: ELISA

Calmodulin-like calcium binding protein EhCaBP3 of Entamoeba histolytica (recombinant, wild type) (natural protein)
percent inhibition of binding by EGTA: 75%
